From US20250163183A1 (COAGULANT THERAPEUTICS, published 2025)
Residue numbers refer to the chain shown, from its start. Values joined by “and” are separate entries in the source; they are usually repeats but may differ in a detail not shown here. Identical values can stand only once.

T1: FVIIa (UniProt P08709 61-466)
T1 construct: also called factor VIIa
T1 sequence (looked up): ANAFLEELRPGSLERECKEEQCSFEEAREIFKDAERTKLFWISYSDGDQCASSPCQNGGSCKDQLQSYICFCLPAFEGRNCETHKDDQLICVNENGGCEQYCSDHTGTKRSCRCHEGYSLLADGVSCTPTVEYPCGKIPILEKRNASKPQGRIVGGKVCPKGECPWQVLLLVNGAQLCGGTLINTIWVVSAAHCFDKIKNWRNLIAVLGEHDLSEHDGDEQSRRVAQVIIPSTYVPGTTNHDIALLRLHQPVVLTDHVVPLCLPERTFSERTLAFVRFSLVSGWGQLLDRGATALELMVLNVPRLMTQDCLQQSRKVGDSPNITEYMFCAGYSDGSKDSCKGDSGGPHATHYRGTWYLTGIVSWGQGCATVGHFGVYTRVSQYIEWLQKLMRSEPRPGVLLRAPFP

B1: LP10 (SR16983-R3-P3-E06) (VHH, not shown: small tags and cut ends)
VHH: QVQLVESGGGLVQAGGSLRLSCAASGTIESINDMGWYRQAPGKQRELVATVSSSGMTNYADSAKGRFTISRDNAKNTMYLQMNSLKPEDTAVYYCKAHISRSYYYDSLGYDYWGQGTQVTVSS
notes: Llama VHH purified from E. coli periplasm
B2: LP12 (SR16983-R3-P3-F06) (VHH, not shown: small tags and cut ends)
VHH: QLQLVESGGGLVQAGDSLRLSCTSSGLTASTYAMAWFRQAPGKEREFVAVVDWKGDTTYANSVKGRFTLSRDNGKNTNYLQMNSLQPEDTALYYCAARGSPGYVARLYAHWGRGTQVTVSS
notes: as for B1
B3: LP2 (SR16983-R2-P3-H10) (VHH, not shown: small tags and cut ends)
VHH: QVQLVESGGGLVQAGGSLRLSCAASGRPISAYTWAWFRQAPGKEREFVAAITSSAGTTYYADSVRGRFTISRDNAENTVYLRMNTLKPEDTAVYYCAADDQGDNWYDHWGQGTQVTVSS
notes: as for B1
B4: LP8 (SR16983-R3-P3-A04) (VHH, not shown: small tags and cut ends)
VHH: QLQLVESGGGLVEAGGSLRLSCAASGRTFSSGALGWFRQAPGKEREFVATIRWSDERTQYSEFVKGRFTISRDNAKNTVYLQMNNLQPEDTAVYYCRSTVGNLLYWGQGTQVTVSS
notes: as for B1
B5: LP9 (SR16983-R3-P3-B05) (VHH, not shown: small tags and cut ends)
VHH: EVQLVESGGGLVQAGGSLRLSCAASGRTFVGSYVMGWFRQAPGKEREFVAASSRSTGNTVYLDSVKGRFTVSRDDAKNTLYLQMNSLKTEDTAVYYCATRASINYNAATWPYWGQGTQVTVSS
notes: as for B1
B6: LP11 (SR16983-R3-P3-F03) (VHH, not shown: small tags and cut ends)
VHH: B5 VHH with E1Q, V2L, V12A, V71I, Y81F, S86R, T89P, I103V, A107Y, T109A
notes: Llama VHH purified from E. coli periplasm; also made in CHO cells for the endothelial barrier assay
B7: LP7 (SR16983-R3-P2-H08) (VHH, not shown: small tags and cut ends)
VHH: EVQLVESGGGLVQAGGSLRLSCAASGTTFDMNSMGWYRQGPGFKRELVATISMGGDTNYADSVKGRFTISRANAKNTVYMQMNSLKPEDTAVYYCNAERIWPNRRTFWGQGTQVTVSS
notes: as for B1
B8: LP13 (SR16983-R3-P3-G08) (VHH, not shown: small tags and cut ends)
VHH: QLQLVESGGGLVQAGGSLRLSCVASGTTFTIEDIGWHRQAPGKQLELVAVSRGGGNADYSDSVKGRFTISRDNAKTTVYLQMSSLKPEDTAVYYCIAKTKATTKWGRGIQVTVSS
notes: as for B1
B9: LP18 (SR16983-R4-P1-A11) (VHH, not shown: small tags and cut ends)
VHH: QLQLVESGGGLVQPGGSLRLSCAASGFTFSTKWMYWVRQGPGKGLERVAAIDAGGTSTYYADSVKGRFTISRDNSENTVYLQMNSLESADTAVYYCARSEGGLFRGRGTQVTVSA
notes: as for B1
B10: LP20 (SR16983-R4-P1-B07) (VHH, not shown: small tags and cut ends)
VHH: QLQLVESGGGLVQAGGSLRLSCTASGSTVRVTAGGWYRQTPGNERELVADIDNGGSTTYADSVKGRFTISRDNAKNAVDLQMNSLKPEDTAVYRCFVIAIPDSAPRPRAYWGQGTEVTVSS
notes: as for B1

What follows are binders tested against T2, human protein C (PC) zymogen (human, UniProt P04070 43-197; P04070 200-461) (assay: ELISA).
T2 construct: Bought
T2 sequence (P04070 43-197, chain 1 of 2): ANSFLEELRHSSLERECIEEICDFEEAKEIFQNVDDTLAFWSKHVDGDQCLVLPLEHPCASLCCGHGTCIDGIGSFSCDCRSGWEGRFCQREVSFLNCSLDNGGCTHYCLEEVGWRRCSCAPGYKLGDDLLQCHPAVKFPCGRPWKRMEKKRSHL
T2 sequence (P04070 200-461, chain 2 of 2): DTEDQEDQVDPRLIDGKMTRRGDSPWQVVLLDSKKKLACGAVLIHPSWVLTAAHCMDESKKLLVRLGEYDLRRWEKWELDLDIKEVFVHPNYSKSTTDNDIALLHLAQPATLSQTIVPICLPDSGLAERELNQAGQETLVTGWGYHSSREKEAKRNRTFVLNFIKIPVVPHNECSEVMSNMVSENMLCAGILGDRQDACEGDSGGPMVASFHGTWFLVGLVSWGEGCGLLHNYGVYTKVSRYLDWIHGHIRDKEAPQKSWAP
B1: no binding. B2: no binding.

What follows are binders tested against T3, human activated protein C (APC) (human, UniProt P04070 43-461) (assay: cell-based or functional assay).
T3 sequence (P04070 other isoform, or with tags, fused parts or gaps): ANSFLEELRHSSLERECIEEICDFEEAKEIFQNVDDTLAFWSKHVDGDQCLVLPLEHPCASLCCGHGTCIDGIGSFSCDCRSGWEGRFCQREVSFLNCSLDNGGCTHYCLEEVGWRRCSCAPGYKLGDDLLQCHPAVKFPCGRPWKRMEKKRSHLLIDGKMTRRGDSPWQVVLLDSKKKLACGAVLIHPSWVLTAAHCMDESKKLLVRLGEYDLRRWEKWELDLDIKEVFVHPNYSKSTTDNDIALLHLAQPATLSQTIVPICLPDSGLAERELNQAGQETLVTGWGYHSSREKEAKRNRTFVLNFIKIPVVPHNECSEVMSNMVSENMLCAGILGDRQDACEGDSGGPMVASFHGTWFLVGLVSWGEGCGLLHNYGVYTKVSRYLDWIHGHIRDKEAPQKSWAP
B3 was tested, and the “APC-mediated histone H3 cleavage, 500 nM nanobody” value (“APC-mediated histone H3 cleavage” for short) was < 75 % residual activity and the “Protac-APTT clotting time, 300 nM nanobody” value (“Protac-APTT clotting time” for short) was > 90%. B4 was tested, and the “APC-mediated histone H3 cleavage” value was < 75 % residual activity and the “Protac-APTT clotting time” value was > 90%. With B5 the “Protac-APTT clotting time” value was > 90%. For B6, the “Protac-APTT clotting time” value was > 90% and the “R46/R41 cleavage ratio of PAR1 by APC” value was > 1 ratio and ≤ 2.5 fold. With B7 the “APC-mediated histone H3 cleavage” value was < 75 % residual activity. For B1, the “APC-mediated histone H3 cleavage” value was < 75 % residual activity. B2 was tested, and the “APC-mediated histone H3 cleavage” value was < 75 % residual activity. In the case of B8, the “APC-mediated histone H3 cleavage” value is reported as < 75 % residual activity. In the case of B9, the “R46/R41 cleavage ratio of PAR1 by APC” value is reported as > 1 ratio. In the case of B10, the “Protac-APTT clotting time” value is reported as > 90%.

Molecular target: T3, human activated protein C (APC)
Assay: cell-based or functional assay
Remark: another data set of the same source
In the case of B3, the “APC plasma T1/2 (min; mean)” value is reported as 38.2 min. In the case of B5, the “APC plasma T1/2 (min; mean)” value is reported as 27.7 min. With B6 the “APC plasma T1/2 (min; mean)” value was 25 min. In the case of B7, the “APC plasma T1/2 (min; mean)” value is reported as 33.9 min. For B1, the “APC plasma T1/2 (min; mean)” value was 29.3 min. For B2, the “APC plasma T1/2 (min; mean)” value was 50.1 min. B8 was tested, and the “APC plasma T1/2 (min; mean)” value was 67.1 min. In the case of B9, the “APC plasma T1/2 (min; mean)” value is reported as 16.1 min. B10 was tested, and the “APC plasma T1/2 (min; mean)” value was 85.6 min.

These binders were tested against T3, human activated protein C (APC) (assay: BLI, VHH captured via anti-V5, APC in solution).
B3 was tested, and the Kd was 8.8 nM, the koff was 0.0011 s⁻¹ and the kon was 130000 M⁻¹ s⁻¹. For B4, the Kd was 2.8 nM, the koff was 0.0017 s⁻¹ and the kon was 620000 M⁻¹ s⁻¹. B5 showed a Kd of 0.003 nM, a koff of 6.3e-07 s⁻¹ and a kon of 210000 M⁻¹ s⁻¹. With B6 the Kd was 2.1 nM, the koff was 0.00069 s⁻¹ and the kon was 330000 M⁻¹ s⁻¹. In the case of B7, the Kd is reported as 9.4 nM, the koff is reported as 0.0041 s⁻¹ and the kon is reported as 440000 M⁻¹ s⁻¹. Binder B1 has a Kd of 4.5 nM, a koff of 0.0011 s⁻¹ and a kon of 230000 M⁻¹ s⁻¹. Binder B2 has a Kd of 0.68 nM, a koff of 0.00026 s⁻¹ and a kon of 380000 M⁻¹ s⁻¹. For B8, the Kd was 1.2 nM, the koff was 0.00041 s⁻¹ and the kon was 350000 M⁻¹ s⁻¹. B9 was tested, and the Kd was 4.5 nM, the koff was 0.0011 s⁻¹ and the kon was 240000 M⁻¹ s⁻¹. With B10 the Kd was 1.9 nM, the koff was 0.0007 s⁻¹ and the kon was 380000 M⁻¹ s⁻¹.

What follows are binders tested against T2, human protein C (PC) zymogen (assay: ELISA screen, PC-coated wells, OD450, n=2).
B3: no binding. B4: no binding.

These binders were tested against T4, FXIa (UniProt P03951 19-625) (assay: ELISA, FXIa coated at 10 µg/mL, HRP-anti-V5, n=3).
T4 construct: also called factor XIa
T4 sequence (P03951 19-625 limits assumed): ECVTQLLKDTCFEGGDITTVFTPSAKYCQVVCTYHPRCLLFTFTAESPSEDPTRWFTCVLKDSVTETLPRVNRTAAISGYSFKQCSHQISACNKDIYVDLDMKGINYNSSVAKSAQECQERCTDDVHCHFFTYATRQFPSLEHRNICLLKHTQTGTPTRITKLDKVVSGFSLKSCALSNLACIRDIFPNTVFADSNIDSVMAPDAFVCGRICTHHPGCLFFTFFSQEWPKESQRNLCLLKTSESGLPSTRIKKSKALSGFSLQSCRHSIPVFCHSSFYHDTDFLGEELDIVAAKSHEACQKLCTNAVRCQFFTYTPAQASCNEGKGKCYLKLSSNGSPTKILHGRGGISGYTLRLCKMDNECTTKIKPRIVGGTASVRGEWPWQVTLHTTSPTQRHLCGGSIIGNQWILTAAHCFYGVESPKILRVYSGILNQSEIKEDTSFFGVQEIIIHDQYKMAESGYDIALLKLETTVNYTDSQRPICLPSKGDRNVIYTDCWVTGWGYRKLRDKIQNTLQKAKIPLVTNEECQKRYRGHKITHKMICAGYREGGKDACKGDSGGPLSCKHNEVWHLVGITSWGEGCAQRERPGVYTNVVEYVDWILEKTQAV
B3: no binding (tested: 2 µg/mL). B4: no binding (tested: 2 µg/mL). B5: no binding (tested: 2 µg/mL). B6: no binding (tested: 2 µg/mL). B7: no binding (tested: 2 µg/mL). B1: no binding (tested: 2 µg/mL). B2: no binding (tested: 2 µg/mL). B8: no binding (tested: 2 µg/mL). B9: no binding (tested: 2 µg/mL). B10: no binding (tested: 2 µg/mL).

The binders below were run against T1, FVIIa (assay: ELISA, FVIIa coated at 10 µg/mL, HRP-anti-V5, n=3).
B3: no binding (tested: 2 µg/mL). B4: no binding (tested: 2 µg/mL). B5: no binding (tested: 2 µg/mL). B6: no binding (tested: 2 µg/mL). B7: no binding (tested: 2 µg/mL). B1: no binding (tested: 2 µg/mL). B2: no binding (tested: 2 µg/mL). B8: no binding (tested: 2 µg/mL). B9: no binding (tested: 2 µg/mL). B10: no binding (tested: 2 µg/mL).

What follows are binders tested against T2, human protein C (PC) zymogen (assay: ELISA screen, PC-coated wells, OD450, n=2 [Continued]).
B5: no binding. B6: no binding. B8: no binding. B10: no binding.

Each binder was assayed against T3, human activated protein C (APC) (assay: BLI; end tied to LP2 by Table 5; lower end of the kon range; LP2).
With B3 the kon was 126000 M⁻¹ s⁻¹.

What follows are binders tested against T3, human activated protein C (APC) (assay: BLI; end tied to LP8 by Table 5; upper end of the kon range; LP8).
B4 showed a kon of 622000 M⁻¹ s⁻¹.

Molecular target: T2, human protein C (PC) zymogen
Assay: ELISA screen, PC-coated wells, OD450, n=2 [Continued]
Remark: another data set of the same source
B7: no binding. B9: no binding.

The binders below were run against T3, human activated protein C (APC) (assay: BLI; end tied to LP12 by Table 5; lower end of the koff range, LP9 set apart; LP12).
In the case of B2, the koff is reported as 0.000259 s⁻¹.

What follows are binders tested against T3, human activated protein C (APC) (assay: BLI (Octet), nanobody captured, 5 APC concentrations, 1:1 model; written in place of a bar).
With B5 the Kd was < 0.01 nM.

These binders were tested against T3, human activated protein C (APC) (assay: BLI (Octet): nanobody captured on anti-V5 sensor, dipped in 500 nM APC; buffer sensor reads 0.06).
With B3 the “APC binding (nm)” value was 0.29 nm. For B4, the “APC binding (nm)” value was 0.32 nm. B5 was tested, and the “APC binding (nm)” value was 0.33 nm. With B6 the “APC binding (nm)” value was 0.3 nm. With B7 the “APC binding (nm)” value was 0.34 nm. In the case of B1, the “APC binding (nm)” value is reported as 0.29 nm. In the case of B2, the “APC binding (nm)” value is reported as 0.31 nm. For B8, the “APC binding (nm)” value was 0.32 nm. B9 was tested, and the “APC binding (nm)” value was 0.29 nm. With B10 the “APC binding (nm)” value was 0.3 nm.
